Experimental data as given in article PMC5696595, “Therapeutic Application of Phage Capsule Depolymerases against K1, K5, and K30 Capsulated E. coli in Mice” (Frontiers in Microbiology, 2017).

What was measured:
Test in all cases: SEC; analytical size exclusion on Superose 6 10/300 GL, AKTA FPLC, 4°C, 25 mM sodium phosphate, 150 mM NaCl, pH 7.5, 0.4 ml/min; molecular weights estimated with high molecular weight calibration kit; 200 μg to 1 mg protein loaded
[1] = biological target: K1F depolymerase (coliphage K1F)
[2] = biological target: K1H depolymerase (coliphage K1H)
[3] = biological target: K5 depolymerase (coliphage K1-5)
[4] = biological target: the molecule itself

K1F depolymerase (enzyme)
stoichiometry N [1]: 3

K1H depolymerase (enzyme)
stoichiometry N [2]: 3

K5 depolymerase (enzyme)
stoichiometry N [3]: 3

B1: K30 gp42 (natural protein)
chain: MLDKLNQPKGSTIGVLKDGRTTQEAIDELTNDVTGSITTTRYASSASQALFPKLIDKMTAYRHGVSGFQDKFRIYGYGSSVGNGATIGGNSSPNTPVAKFFEHFQRTVNKAGIYPFEYSNKSVDGSNINDFLNREWPATVATGVFPDLAVFAYGMNDFPSAQYNAGMTFGANGFKQRLRNAIQKVRDAGGDVVLLTTPHPNIEEYSWELPSSIDMVWPQFAAKPVAGDVLIPPVSQSNVSFDFMGKRITQGVRFLRGNDAMREVAVEMGCVLIDVEKYWFEAVGKYGNVLLFDRVPAMQTVHPNLLGHQQSYWRAIEEFFNNVDSSGWIAPDAKLNQTLDVGGNALNPAKMEADVDLQANGIRQRAFVRRDKSGRVMEELTQDSRVKRTSYTVSDPTVSAPGYSLTWDEWFTRTKGLFTSGETLGIPVNNRTEGRLLVTAWISGQTGWTQLEDYLVSNREGVVLVSKIGSLDNTPPAGGTGTNGQRLFTVSTSANNVVVNILSDNATVKFKLDTFGA
stoichiometry N [4]: 3

B2: K30 gp41 (enzyme)
chain: MDQDIKTVIQYPVGATEFDIPFDYLSRKFVRVSLVTGDNRRLLSNITEYRYVSKTRVKLLVETAGFDRVEIRRFTSASERIVDFSDGSVLRAADLNVSQIQSAHIAEEARDAALMAMPQDDVGNLDARNRRIVRLAPGIDSTDAINKNQLDTTLGEAGGILSQVKDTQKDIQNYIQKFGDDTAMVRGVNWVYNGGSAIGGETSFIIDKSAPVFAVPYIEVNGSRQFRDWQYEYDPATKRVTLVKPLEAGDFVVCLTTENKLPLEDLLASTGGADSIGKAGGGTVQDGLDATIHGTDVHRDTVTPGKLDTLLVYNGTNAGRDLRGHEFVMPHGTFSATRILRTRGISAAESKYTGFTWRGQGSSFTKLVHPATGGQGDIAFMDYLKDVTMSGFMMDNTALGQGTSNQDTRNGQFWIRHSVDSYFDDLRFAGADALTFCLDHCKNIYSTNLKVDYQLRYPTGTGKSPLIVGDYSEQCMFIGGYVKTVSPDGTIKYAGDLADNDQADDTKWAFINLYGLTFEQKPNSNACMWQEGEGAPSNAHFIGMNYINNGVGHGVSEKAVGTDIGSTFRQAQVRAVWNRAEYISIGSHFINNDAKYPAGTGGAGTAAAGGVHNDNAKFTSLVGDYFRGNFADYTDYTGASGVNPENSTHITNAKLTSIIRTSSSSTSQHLAIVNCQLTSAGRISGGGNGRLHVSVVASHCVGPLGQFGHGQSETYLDVINSTFTAAGSTEAMITQSGVGNISFANSTFRDYIRVVDGSHTRVTFRNCTFYTCTFTEDDRKARYVNCRFISCTDAPDSFGLNFAADSLDRPSSLRVNVTLTAGGSYTFPAWVLQGRGAYFINVGGNGANLPACAGIIGKSSATGSGVWTPQWESTPSSIVVSWPSNGYITVTATTAGNYTIGVH
stoichiometry N [4]: 3
